Publication PMC5741177
Like-named read-outs stand apart in the source and are kept apart here.

What was measured:
br = target: T1, br (UniProt P03069); assay: EMSA
T1 chain: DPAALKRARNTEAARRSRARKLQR

brHis = target: T2, brHis (UniProt P03069, R234H); assay: EMSA
T2 chain: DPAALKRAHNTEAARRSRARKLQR

brHis2 [1] = target: T3, brHis2 (UniProt P03069, L230H;R234H); assay: EMSA
T3 chain: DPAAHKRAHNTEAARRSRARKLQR

br2(SS) = target: T4, br2(SS) (UniProt P03069 226-248+=GGC, internal_change); assay: EMSA
T4 chain: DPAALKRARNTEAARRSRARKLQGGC

brHis2 [2] = target: T3, brHis2; assay: EMSA
brHis2 [3] = target: T3, brHis2; assay: fluorescence anisotropy

B1: GTCAT (dsDNA)
DNA 1: CGCGTCATAATTGAGAGCGC
DNA 2: GCGCTCTCAATTATGACGCG
binding result (br): no binding | binding result (brHis): no binding

B2: AP-1 (dsDNA)
DNA 1: TGGAGATGACGTCATCTCGT
DNA 2: ACGAGATGACGTCATCTCCA
binding result (brHis2 [1]): binds | binding result (br2(SS)): binds

B3: MUT (dsDNA)
DNA 1: CGCGTGATAATTGAGAGCGC
DNA 2: GCGCTCTCAATTATCACGCG
binding result (brHis2 [2]): no binding

B4: TMR-GTCAT (dsDNA)
DNA 1: CGCGTCATAATTGAGAGCGC
DNA 2: GCGCTCTCAATTATGACGCG
Kd (brHis2 [3]): ~24 nM
